Source: patent US20220356229A1
Where “and” joins values, the source holds several entries; their conditions need not be identical. Identical values can stand only once.

target: SARS-CoV-2 Spike (S) protein, wild type (SARS-CoV-2), P0DTC2; experiment: HT-SPR Carterra LSA; mAb coupled to chip, Spike in solution; 1:1 Langmuir fit; conditions: remark: other sources report otherwise

| Binder | kon [M⁻¹ s⁻¹] |
| --- | --- |
| anti-SARS-CoV-2 antibody 493 (antibody, V domains shown) VH: EVQLVESGGGLIQPGRSLRLSCAASGFTVSITYMSWVRQAPGKGLEWVSLIYSGGSSYYADSVKGRFTISRDNSKNTLYLQMNSLRAEDTAVYYCATTMVRGVIISYYYGMDVWGQGTTVTVSS VL: QSALTQPASVSGSPGQSITISCTGTSSDVGGYNYVSWYQQHPGKAPKLMIYEVSNRPSGVSNRFSGSKSGNTASLTISGLQAEDEADYYCSSYTSSSTLVFGGGTKLTVL | 75000 |

target: SARS-CoV-2 Spike (S) protein, wild type, full length, expressed on the surface of transiently transfected CHO cells (SARS-CoV-2), P0DTC2; experiment: not given; conditions: remark: other sources report otherwise

| Binder | MFI fold over isotype control (fold over isotype) |
| --- | --- |
| Antibody 389 (antibody, V domains shown) VH: QVQLVESGGGVVQPGRSLRLSCAASGFTFSSYAMHWVRQAPGKGLEWVAVISYDGSNKYYADSVKGRFTISRDNSKNTLYLQMNSLRAEDTAVYYCASQGRMYVRGVDYGVYWGQGTLVTVSS VL: NFMLTQPHSVSESPGKTVTISCTGSSGSIASNYVQWYQQRPGSAPTTVIYEDNQRPSGVPDRFSGSIDSSSNSASLTISGLKTEDEADYYCQSYDSSKISHAVFGGGTQLTVL | 0.72 |
| Antibody 390 (antibody, V domains shown) VH: EVQLVESGGGLIQPGGSLRLSCAASGFTVSSNYMSWVRQAPGKGLEWVSIIYSGGSTYYADSVKGRFTISRDNSKNTLYLQMNSLRAEDSAVYSCATTMVRGLIISYYYGMDVWGQGTTVTVSS VL: QSALTQPASVSGSPGQSITISCTGTSSDVGGYNYVSWYQQHPGKAPKLMIYEVSNRPSGVSNRFSGSKSGNTASLTISGLQAEDEADYYCSSYTSSSTLVFGGGTKLTVL | 0.73 |
| Antibody 413 (antibody, V domains shown) VH: EVQLVESGGGLIQPGGSLRLSCAASGFTVSGNYMNWVRQAPGKGLEWVSVIYSGGSTYYADSVKGRFTISRANSKNTLYLQMNSLRAEDTAVYYCASTSLVRGLIILYYYGMDVWGQGTTVTVSS VL: QSALTQPASVSGSPGQSITISCTGTSSDVGGYNYVSWYQQHPGKAPKLMIYEVSNRPSGVSNRFSGSKSGNTASLTISGLQAEDEADYYCSSYTSSSTLVFGGGTKLTVL | 1.11 |

target: T1, SARS-CoV-2 Spike (S) protein, wild type, full length (SARS-CoV-2), P0DTC2; experiment: not given; conditions: remark: other sources report otherwise

| Binder | median fluorescence, fold over isotype control (fold over isotype) |
| --- | --- |
| antibody 495 (antibody, V domains shown) VH: QITLKESGPTLVKPTQTLTLTCTFSGFSLSTSGVGVGWIRQPPGKALEWLALIYWDDDKRYSPSLKSRLTITKDTSKNQVVLIMTNMDPVDTATYYCAHRDSSSWFDLDAFDIWGQGTMVIVSS VL: QSVLTQPPSVSEAPRQRVTISCSGSSSNIGNNAVNWYQQLPGKAPKLLIYYDDLLPSGVSDRFSGSKSGTSASLAISGLQSEDEADYYCAAWDDRLNGPVFGGGTKLTVL | 0.83 |
| antibody 499 (antibody, V domains shown) VH: EVQLVESGGGLVKPGGSLRLSCAASGFTFSSYSMNWVRQAPGKGLEWVSSISSSSSYIYYADSVKGRFTISRDNAKNSLYLQMNSLRAEDTAVYYCARAPAGIVVGPDYWGQGTLVTVSS VL: NFMLTQPHSVSESPGKTVTISCTGSSGSIASNYVQWYQQRPGSAPTTVIFEDNQRPSGVPDRFSGSIDSSSNSASLTISGLKTEDEADYYCQSYHSSNPHVVFGGGTKLTVL | 0.9 |

target: full length Spike of WIV1 (WIV1); experiment: not given; conditions: not given

| Binder | fold over isotype control (median fluorescence) (fold over isotype) |
| --- | --- |
| anti-SARS-CoV-2 antibody 316 (antibody, V domains shown) VH: QVHLVESGGGVVQPGRSLRLSCAASGFTLTAYAMHWVRQAPGKRLEWVALISYDGSVKKYADSVKGRITVSGDTSTNTLHLQMNSLRADDTAVYYCVRGGVSGPNSFDLWGQGTMVTVSS VL: DVVMTQSPLSLPVTLGQPASMSCRSSQSLEYSDGNTYVNWFHQRPGQSPRRLIYKVSYRDSGVPDRFSGSGSGTDFTLQISRVEAEDVGIYYCMQGTHWPVTFGQGTKVEIK | 93.8 |
| anti-SARS-CoV-2 antibody 319 (antibody, V domains shown) VH: QVQLVESGGGVVQPGRSLRLSCAASGFNLSNYAMHWVRQASGKGLEWVSLISYDGSIKYYTDSVKGRFTVSGDNSKNTLFLQMNSLRPDDSALYYCVRGGVSGPNSFDMWGQGTTVTVSS VL: DVVMTQSPLSLPVTLGQPASISCRSSQSLVYSDGNTYVNWFQQRPGQSPRRLIYQVSIRASGVPDRFSGSGSGTDFALKISRVEAEDVGVYYCMQGTHWPVTFGQGTKVEIK | 96.2 |
| anti-SARS-CoV-2 antibody 315 (antibody, V domains shown) VH: QVQLVQSGSELKKPGASVKLSCQASGYSFTNHAMNWVRQAPGQGLEWMGWINTNTGNPTYAQGFTGRFVFSLDTSVSTTYLHISSLKAEDTAVYYCARASARPGVATNLDFWGQGTLVVVSS VL: DIQMTQSPSSLSASVGDRVTITCRASQNIDNYLNWYQQKPGKAPKLLIYAASRLHSGVPSRFSGSGSGTDFTLIISSLQPEDLATYYCQQSYSNPLTFGPGTKVDIR | 1.09 |
| anti-SARS-CoV-2 antibody 318 (antibody, V domains shown) VH: QVQLVESGGGVVPPGRSLSLPCAASGFSFSAYAMHWLRQAPGKGLEWVAVISYDGTVKYVADSVRGRFTISRDNSNNTLYLQMTSLRSDDTAVYYCARDLGALAAAPTVYFVHWGQGTLVTVSS VL: SYVLTQPPSVSVAPGKTATITCAGEDIGRKSVHWYQQKPGQAPVLVIFYYSDRPSGIPDRFSGSVSGNTATLTIGRVEAGDEADYFCQVWDRTTNHVIFGGGTKVTVL | 291 and 166 |

target: SARS-CoV-2 Spike protein, wild type, full length (SARS-CoV-2), P0DTC2; experiment: not given; conditions: remark: other sources report otherwise

| Binder | binding signal, fold over isotype control (fold over isotype) |
| --- | --- |
| antibody 495 (antibody, V domains shown) VH: QITLKESGPTLVKPTQTLTLTCTFSGFSLSTSGVGVGWIRQPPGKALEWLALIYWDDDKRYSPSLKSRLTITKDTSKNQVVLIMTNMDPVDTATYYCAHRDSSSWFDLDAFDIWGQGTMVIVSS VL: QSVLTQPPSVSEAPRQRVTISCSGSSSNIGNNAVNWYQQLPGKAPKLLIYYDDLLPSGVSDRFSGSKSGTSASLAISGLQSEDEADYYCAAWDDRLNGPVFGGGTKLTVL | 1090 and 384 and 530 |
| antibody 464 (antibody, V domains shown) VH: QVQLVQSGAEVKKPGASVKVSCKVSGYTLTELSMHWVRQAPGKGLEWMGGFDPEDGETIYAQKFQGRVTMTEDTSTDTAYMELSSLRSEDTAVYYCATARAFGVANWFDPWGQGTLVTVSS VL: QSVLTQPPSASGTPGQRVTISCSGSSSNIGSNYVYWYQQLPGTAPKLLIYRNNQRPSGVPDRFSGSKSGTSASLAISGLRSEDEADYYCAAWDDSLSGLYVFGTGTKVTVL | 1.27 and 0.99 and 1.04 |
| antibody 485 (antibody, V domains shown) VH: QVQLQESGPGLVKPSGTLSLTCAVSGASISSSNWWSWVRQPPGKGLEWIGEIYHSGSTNYNPSLKSRVTISVDKSKNQFSLKLSSVTAADTAVYYCARRSYYGSGSYYPFDYWGQGTLVTVSS VL: QSALTQPASVSGSPGQSITISCTGTSSDVGSYNLVSWYQQHPGKAPKLMIYEGRKRPSGVSNRFSGSKSGNTASLTISGLQAEDEADYYCCSYAGSSTYVFGTGTKVTVL | 510 |
| antibody 499 (antibody, V domains shown) VH: EVQLVESGGGLVKPGGSLRLSCAASGFTFSSYSMNWVRQAPGKGLEWVSSISSSSSYIYYADSVKGRFTISRDNAKNSLYLQMNSLRAEDTAVYYCARAPAGIVVGPDYWGQGTLVTVSS VL: NFMLTQPHSVSESPGKTVTISCTGSSGSIASNYVQWYQQRPGSAPTTVIFEDNQRPSGVPDRFSGSIDSSSNSASLTISGLKTEDEADYYCQSYHSSNPHVVFGGGTKLTVL | 1120 and 386 and 432 |

target: T1, SARS-CoV-2 Spike (S) protein, wild …; experiment: not given; conditions: remark: other sources report otherwise; remark: another data set of the same source

| Binder | bead binding signal (fold over isotype) (fold over isotype) |
| --- | --- |
| antibody 267 (antibody, V domains shown) VH: EVHLVQSGAEMKKPGATVKISCKVSGNTFIDHYIQWVQQAPGKGFEWMGLVDPEDGETIYAEKFQGRVTITADTSRDTAYMELSSLKSEDTAVYYCGTHGDYLDYWGQGTLVTVSS VL: FYELTQPSSVSVSPGQTALITCSGDVVAKKYARWFQQKAGQAPVLVIYKDTERPSGIPERISGSSSGTTVTLTISGAQVEDEADYYCYSATDNNLVFGGGTKVTVL | 312 |
| antibody 270 (antibody, V domains shown) VH: QVQLVQSGAEVKRPGTSVKVSCKTSGYTFTDHFIHWVRQAPGRRLEWMGWINPNSGGTNYAQNFQGRVTMTRDTSITTAYMDLTRLTSDDTAIYYCAREAAYGSGNLNWFDPWGQGTRVTVSS VL: NFMLTQPHSVSESPGKTVTISCTGSSGSIAANYVHWYQQRPGSAPRTVIYEDNQRPSGVPDRFSGSIDSSSNSASLTISGLKTEDEADYYCQSYDGDSWVFGGGTKLTVL | 305 |
| antibody 259 (antibody, V domains shown) VH: EVQLVQSGAEVKKPGATVKISCKVSGYTFTDYYMHWVQQAPGKGLEWMGLVDPEDGETIYAEKFQGRVTITADTSTDTAYMELSSLRSEDTAVYYCATDLLSWKLYCSGGSCPQMDVWGQGTTVTVSS VL: DIQMTQSPSSLSASVGDRVTITCRASQGIRNDLGWYQQKPGKAPKRLIYAASSLQSGVPSRFSGSGSGTEFTLTISSLQPEDFATYYCLQHNSYPQTFGQGTKLEIK | 275 |
| antibody 269 (antibody, V domains shown) VH: QLQLQESGPGLVKPSETLSLTCTVSGGSISSSSYYWGWIRQPPGKGLEWIGNIYYSGSTYYNPSLKSRVTISVDTSKNQFSLKLSSVTAADTAVYYCAGEELDIVATIYSSRYYYYGMDVWGQGTTVTVSS VL: QSALTQPASVSGSPGQSITISCTGTSSDVGGYNYVSWYQQHPGKAPKLMIYEVSNRPSGVSNRFSGSKSGNTASLTISGLQAEDEADYYCSSYTSTSTLVFGGGTKLTVL | 480 and 191 and 188 |
